Experimental data published in the supplement of paper PMC7877785.
± gives the uncertainty stated by the source.

Assay: self-splicing fitness, log relative to wild type (ln ratio); higher = more splicing; Tetrahymena group I intron in knt gene, E. coli kanamycin selection, DiMSum; sequences stand for … in CUCUCU…GGAGGGAAAAGUUAUCAGGCAUGCACCUGGUAGCUAGUCUUUAAACCAAUAGAUUGCAUCGGUUUAAAAGGCAAGACCGUCAAAUUGCGGGAAAGGGGUCAACAGCCGUUCAGUACCAAGUCUCAGGGGAAACUUUGAGAUGGCCUUGCAAAGGGUAUGGUAAUAAGCUGACGGACAUGGUCCUAACCACGCAGCCAAGUCCUAAGUCAACAGAUCUUCUGUUGAUAUGGAUGCAGUUCACAGACUAAAUGUCGGUCGGGGAAGAUGUAUUCUUCUCAUAAGAUAUAGUCGGACCUCUCCUUAAUGGGAGCUAGCGGAUGAAGUGAUGCAACACUGGAGCCGCUGGGAACUAAUUUGUAUGCGAAAGUAUAUUGAUUAGUUUUGGAGUACUCGUGGUCG
Procedure, shortened: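 A randomised library covering all eight P1ex-region intron nucleotides was built with the intron in the knt kanamycin-resistance gene on pET-22b(+) and held in E. coli BL21(DE3). Cells were grown overnight at 37°C or 30°C on LB agar, with or without 25 μg/mL kanamycin, plus 100 μg/mL carbenicillin, 50 μM IPTG and 0.2% rhamnose, and pooled colonies were amplicon-sequenced on an Illumina HiSeq 2500. DiMSum fitness is the error-weighted combination of wild-type-normalised replicate fold changes, kanamycin versus none.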

Sequence | self-splicing fitness (ln) (30 °C) | self-splicing fitness (ln) (37 °C)
AAUAAGCAAUAUUACGAGUA | -1.67 ± 0.19 | -0.925 ± 0.16
AAUAAGCAAUAUUACGAUAU | -1.71 ± 0.11 | -0.747 ± 0.13
AAUAAGCAAUAUUACGAUGU | -0.62 ± 0.076 | -0.682 ± 0.11
AAUAAGCAAUAUUACGCCCC | 0.198 ± 0.2 | -0.311 ± 0.24
AAUAAGCAAUAUUACGCCCG | -1.39 ± 0.15 | -0.203 ± 0.18
AAUAAGCAAUAUUACGCCGU | -1.24 ± 0.11 | -0.293 ± 0.11
AAUAAGCAAUAUUACGCCUA | 0.0474 ± 0.09 | -0.183 ± 0.098
AAUAAGCAAUAUUACGCGUA | -1.25 ± 0.14 | -0.929 ± 0.13
AAUAAGCAAUAUUACGCUAC | -3.62 ± 0.34 | -1.82 ± 0.23
AAUAAGCAAUAUUACGCUAU | -2.74 ± 0.16 | -2.24 ± 0.18
AAUAAGCAAUAUUACGCUGG | -1.81 ± 0.17 | -1.5 ± 0.21
AAUAAGCAAUAUUACGGACU | -0.768 ± 0.071 | 0.349 ± 0.1
AAUAAGCAAUAUUACGGAUG | -2.21 ± 0.1 | -1.39 ± 0.1
AAUAAGCAAUAUUACGGCAG | -0.454 ± 0.11 | -0.547 ± 0.16
AAUAAGCAAUAUUACGGCUC | -0.468 ± 0.13 | 0.129 ± 0.15
AAUAAGCAAUAUUACGGGGG | -2.91 ± 0.19 | -2.75 ± 0.21
AAUAAGCAAUAUUACGGUCA | -0.268 ± 0.084 | 0.155 ± 0.12
AAUAAGCAAUAUUACGGUGC | -3 ± 0.15 | -2.26 ± 0.23
AAUAAGCAAUAUUACGGUGG | -4.07 ± 0.17 | -2.31 ± 0.13
AAUAAGCAAUAUUACGUACG | -0.966 ± 0.14 | -0.239 ± 0.17
AAUAAGCAAUAUUACGUAGC |  | -2.38 ± 0.27
AAUAAGCAAUAUUACGUCGC | -2.48 ± 0.16 | -1.21 ± 0.14
AAUAAGCAAUAUUACGUGCU | -1.8 ± 0.074 | -1.29 ± 0.08
AAUAAGCAAUAUUACGUGGG | -3 ± 0.13 | -2.75 ± 0.17
AAUCAGCAAUAUUACGAAAA | -1.45 ± 0.092 | -0.169 ± 0.1
AAUCAGCAAUAUUACGAACA | -0.526 ± 0.12 | -0.161 ± 0.13

Sequence | self-splicing fitness (ln) (30 °C) | self-splicing fitness (ln) (37 °C)
AAUCAGCAAUAUUACGAACU | -0.125 ± 0.05 | 0.389 ± 0.077
AAUCAGCAAUAUUACGACCG | -0.959 ± 0.098 | -0.795 ± 0.11
AAUCAGCAAUAUUACGAUUA | -0.229 ± 0.088 | -0.426 ± 0.088
AAUCAGCAAUAUUACGAUUU | -1.8 ± 0.076 | -0.714 ± 0.086
AAUCAGCAAUAUUACGCAAA | -0.0279 ± 0.067 | -0.117 ± 0.078
AAUCAGCAAUAUUACGCAGA | -1.04 ± 0.068 | -0.32 ± 0.07
AAUCAGCAAUAUUACGCAUA | -0.272 ± 0.085 | -0.142 ± 0.13
AAUCAGCAAUAUUACGCCAG | -0.398 ± 0.16 | -1.58 ± 0.17
AAUCAGCAAUAUUACGCUAG | -0.729 ± 0.066 | 0.121 ± 0.09
AAUCAGCAAUAUUACGGAAU | -0.646 ± 0.065 | -0.35 ± 0.075
AAUCAGCAAUAUUACGUCCA | -0.876 ± 0.1 | -0.0432 ± 0.12
AAUCAGCAAUAUUACGUGAA | -0.152 ± 0.065 | 0.257 ± 0.094
AAUCAGCAAUAUUACGUUUC | -2.83 ± 0.14 | -1.2 ± 0.13
AAUGAGCAAUAUUACGAAAG |  | -3.18 ± 0.4
AAUGAGCAAUAUUACGAAUA | -3.37 ± 0.39 | -2 ± 0.32
AAUGAGCAAUAUUACGACAG | -3.71 ± 0.29 | -1.85 ± 0.26
AAUGAGCAAUAUUACGACAU | -1.33 ± 0.014 | -0.714 ± 0.033
AAUGAGCAAUAUUACGACCG | -3.45 ± 0.36 | -1.24 ± 0.34
AAUGAGCAAUAUUACGACGG | -3.86 ± 0.19 | -2.3 ± 0.21
AAUGAGCAAUAUUACGAGAA | -2.17 ± 0.23 | -2.03 ± 0.32
AAUGAGCAAUAUUACGAGCC | -1.79 ± 0.44 | 
AAUGAGCAAUAUUACGAGCU | -3.15 ± 0.24 | -3.57 ± 0.42
AAUGAGCAAUAUUACGAGGU | -4.31 ± 0.29 | -2.49 ± 0.17
AAUGAGCAAUAUUACGAUAA | -3.11 ± 0.17 | -2.51 ± 0.2
AAUGAGCAAUAUUACGAUCA |  | -2.46 ± 0.31
AAUGAGCAAUAUUACGCAAC | -2.46 ± 0.22 | -2.51 ± 0.44

Sequence | self-splicing fitness (ln) (30 °C) | self-splicing fitness (ln) (37 °C)
AAUGAGCAAUAUUACGCACC |  | -1.2 ± 0.48
AAUGAGCAAUAUUACGCCGG | -3.52 ± 0.47 | -2.35 ± 0.36
AAUGAGCAAUAUUACGCCGU |  | -2.55 ± 0.26
AAUGAGCAAUAUUACGCGCG | -2.52 ± 0.18 | -1.9 ± 0.2
AAUGAGCAAUAUUACGCUCU | -3.18 ± 0.19 | -3.53 ± 0.23
AAUGAGCAAUAUUACGGACC |  | -1.08 ± 0.44
AAUGAGCAAUAUUACGGCAG | -2.62 ± 0.24 | -1.87 ± 0.46
AAUGAGCAAUAUUACGGCAU | -1.55 ± 0.12 | -0.695 ± 0.12
AAUGAGCAAUAUUACGGCCC | -1.23 ± 0.47 | -1.48 ± 0.37
AAUGAGCAAUAUUACGGGCU | -2.51 ± 0.18 | -2.21 ± 0.46
AAUGAGCAAUAUUACGGUCA | -1.92 ± 0.28 | -1.45 ± 0.36
AAUGAGCAAUAUUACGUAAU | -3.08 ± 0.17 | -1.33 ± 0.15
AAUGAGCAAUAUUACGUACA | -2.3 ± 0.36 | -3.21 ± 0.33
AAUGAGCAAUAUUACGUAGC | -2.91 ± 0.2 | -2.05 ± 0.36
AAUGAGCAAUAUUACGUAUU | -3.41 ± 0.14 | -2.48 ± 0.16
AAUGAGCAAUAUUACGUCGC | -3.95 ± 0.29 | -2.79 ± 0.32
AAUGAGCAAUAUUACGUCGG | -3.31 ± 0.22 | -2.44 ± 0.4
AAUGAGCAAUAUUACGUGUC | -3.39 ± 0.25 | -3.65 ± 0.39
AAUUAGCAAUAUUACGAAAC |  | -0.761 ± 0.4
AAUUAGCAAUAUUACGAACC | -0.0097 ± 0.32 | -0.827 ± 0.36
AAUUAGCAAUAUUACGAAGU | -2.79 ± 0.21 | -1.05 ± 0.17
AAUUAGCAAUAUUACGAAUA | -1.67 ± 0.41 | 0.49 ± 0.3
AAUUAGCAAUAUUACGACUU | 0.0659 ± 0.11 | 0.0237 ± 0.14
AAUUAGCAAUAUUACGAGAG | -3.43 ± 0.23 | -1.09 ± 0.18
AAUUAGCAAUAUUACGAGGC | -2.7 ± 0.32 | -2.6 ± 0.44
